Experimental findings from US9296994B2, “Archease as RNA ligaes complex member” (IMBA—INSTITUT FÜR MOLEKULARE BIOTECHNOLOGIE GMBH, priority 2012, dated 2016) are described below.

In data set [1] the target is T1, human tRNA ligase complex (Homo sapiens, UniProt Q9Y3I0).
T1 construct: FLAG; made in house; Archease expressed in E. coli
Description: RNA ligation assay with affinity-purified tRNA ligase complex and added recombinant Archease. Type of data set: biochemical. Particulars: pre-cleaved tRNA substrates or linear intron, time course. How it is done:
FIG. 3: Archease boosts RNA ligation by the human tRNA ligase complex. A) Time-course ligation assay with affinity-purified tRNA ligase complex and pre-cleaved tRNA substrates in absence or presence of recombinant Archease. B) Time course ligation assay with affinity purified tRNA ligase complex and isolated linear introns (2.5 μM) in absence or presence of recombinant Archease (8.5 μM) expressed in E. coli. The signals corresponding to the concatemerized intron were quantified and plotted as fraction of the total signal detectable in the respective lane.
FIG. 6: The point mutations D39A and K144A abolish the function of Archease in RNA ligation. A) Time-course of ligation activity of FLAG-HSPC117 complexes upon addition of recombinant wild-type or mutant Archease (15 μM). B) SDS-PAGE analysis of purified recombinant wild-type and mutant Archease.
Addition of Archaease influences ligase activity of affinity purified human tRNA ligase complexes.
To study the function of Archease the available NMR structure from the euryarchaeote Methanothermobacter thermautotrophicus (Yee et al., 2002) (36% identical to human protein) was used and aspartic acid (D) 39 and lysine (K) 144, both extremely conserved residues, were replaced by alanines (D39A; K144A) (FIG. 5). Wild-type and mutant versions of Archease were over-expressed in […] and tRNA ligase activity was measured. […] FIG. 6B confirms equal concentrations of recombinant proteins added to the reactions.

Data set [2] concerns cleaved Xbp1 RNA minimal substrate. Description: In vitro Xbp1 splicing (exon ligation) assay with Ire1 pre-cleaved Xbp1 RNA. In kind it is biochemical, human. To be noted: addition of recombinant protein. The text has this:
FIG. 8: The human tRNA ligase HSPC117 and Archease are both required for non-conventional splicing of Xbp1 mRNA during the Unfolded Protein Response (UPR). A) Experimental outline for in vitro splicing assay. B) An internally labeled fragment of Xbp1 mRNA was pre-cleaved with recombinant Ire1 endonuclease and supplemented with buffer or HeLa whole-cell extract (wce) for the indicated time points to allow ligation of exon halves. Formation of splice product is specific to the presence of both Ire1 and cell extract. Lanes marked “unspliced” and “spliced” contain control transcripts to mark the size of the splice product. C) HSPC117 and Archease both contribute to non-conventional splicing. 3′ end labeled Xbp1 was pre-cleaved with Ire1 and supplemented with whole-cell extract from HeLa cells treated with siRNAs as indicated above the lanes. Cell extracts were harvested 72 hrs post transfection. D) Ligase activity for non-conventional splicing resides in HSPC117 but not in Archease. In vitro splicing assay using 3′end labeled Xbp1 carried out using whole cell extract (input) or FLAG-IP from HEK293 cells stably expressing FLAG-HSPC117, FLAG-Archease or FLAG-DDX1. Ligation activity is only found in IPs of integral members of the tRNA ligase complex. E) Non-conventional splicing activity is stimulated by addition of Archease. Splicing assay using 3′ end labeled Xbp1 carried out as above with addition of buffer or recombinant protein as indicated above the lanes. […] Bovine Serum Albumine (BSA) was included as control.
For the splicing assay RNA was prepared by T7-transcrition from PCR product containing spliced and unspliced form of human Xbp1. Substrates were labelled internally using a-GTP and at the 3′end using ligation to pCp. Substrate was pre-cleaved with recombinant Ire1 for 5 mins in tRNA ligation buffer with subsequent addition of protein extract of FLAG-IP eluate to total volume of 5 μl. Samples were treated with proteinase K and phenol-chloroform extracted prior to loading on 10% PAGE gel.
Perturbation of normal ER function causes mis- or unfolded proteins to accumulate leading to activation of the unfolded protein response (UPR). One of three UPR pathway inducers in mammals, the ER transmembrane protein Ire1, cleaves the Xbp1 mRNA specifically to remove a 26 nt intron (FIG. 8A). […] None of the additional four components of the tRNA ligase complex were required for ligation in agreement with previous findings (WO 2012/28606). […] The reduced ligation activity seen in Archease-depleted extracts raised the question whether Archease is an RNA ligase or rather acts to stimulate the ligation activity of other ligases. To address this question stable cell lines expressing FLAG-tagged versions of HSPC117, Archease, and DDX1 (a DEAD-box helicase component of the human tRNA ligase complex) were generated and the Xbp1 ligation assay using FLAG-IPs was performed.
To further address the stimulatory activity of Archease both HSPC117 and Archease were depleted by RNAi and then an Archease rescue-construct containing either WT or MUT Archease was introduced.

T1 sequence (Q9Y3I0 whole entry): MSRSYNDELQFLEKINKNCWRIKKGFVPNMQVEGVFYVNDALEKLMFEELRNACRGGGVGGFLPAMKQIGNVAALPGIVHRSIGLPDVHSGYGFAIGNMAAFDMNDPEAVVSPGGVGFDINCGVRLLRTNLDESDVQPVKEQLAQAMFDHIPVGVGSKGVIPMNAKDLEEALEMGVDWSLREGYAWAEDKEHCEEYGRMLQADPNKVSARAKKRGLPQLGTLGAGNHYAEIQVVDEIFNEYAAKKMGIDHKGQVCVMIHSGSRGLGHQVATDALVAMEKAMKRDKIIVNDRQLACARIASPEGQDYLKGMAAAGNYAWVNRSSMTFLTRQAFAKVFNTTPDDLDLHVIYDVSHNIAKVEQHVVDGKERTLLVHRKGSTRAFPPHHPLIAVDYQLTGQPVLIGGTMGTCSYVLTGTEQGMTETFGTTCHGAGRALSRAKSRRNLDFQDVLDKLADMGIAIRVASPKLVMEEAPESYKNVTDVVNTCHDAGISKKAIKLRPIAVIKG
T1 sequence (Q92499 whole entry partner): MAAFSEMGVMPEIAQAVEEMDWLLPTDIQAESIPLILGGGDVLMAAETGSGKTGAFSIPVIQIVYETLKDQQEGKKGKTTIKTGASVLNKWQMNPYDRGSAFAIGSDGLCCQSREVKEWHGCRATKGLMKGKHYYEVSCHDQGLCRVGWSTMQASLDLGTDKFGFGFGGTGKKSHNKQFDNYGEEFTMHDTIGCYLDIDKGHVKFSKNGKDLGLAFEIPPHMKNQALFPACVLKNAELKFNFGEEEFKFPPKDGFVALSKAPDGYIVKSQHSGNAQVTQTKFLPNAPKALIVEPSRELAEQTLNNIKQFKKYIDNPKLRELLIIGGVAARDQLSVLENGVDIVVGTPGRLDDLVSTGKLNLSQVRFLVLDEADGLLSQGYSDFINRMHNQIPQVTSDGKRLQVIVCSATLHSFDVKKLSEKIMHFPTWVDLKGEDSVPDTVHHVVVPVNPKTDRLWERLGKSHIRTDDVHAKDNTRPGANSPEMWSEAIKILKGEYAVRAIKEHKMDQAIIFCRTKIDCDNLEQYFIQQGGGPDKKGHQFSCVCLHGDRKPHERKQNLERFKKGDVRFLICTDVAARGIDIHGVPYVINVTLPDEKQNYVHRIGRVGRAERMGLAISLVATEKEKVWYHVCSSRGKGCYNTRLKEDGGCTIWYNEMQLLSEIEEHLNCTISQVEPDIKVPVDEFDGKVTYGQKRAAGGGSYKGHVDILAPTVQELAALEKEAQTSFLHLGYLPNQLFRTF
T1 sequence (Q52LJ0 whole entry partner): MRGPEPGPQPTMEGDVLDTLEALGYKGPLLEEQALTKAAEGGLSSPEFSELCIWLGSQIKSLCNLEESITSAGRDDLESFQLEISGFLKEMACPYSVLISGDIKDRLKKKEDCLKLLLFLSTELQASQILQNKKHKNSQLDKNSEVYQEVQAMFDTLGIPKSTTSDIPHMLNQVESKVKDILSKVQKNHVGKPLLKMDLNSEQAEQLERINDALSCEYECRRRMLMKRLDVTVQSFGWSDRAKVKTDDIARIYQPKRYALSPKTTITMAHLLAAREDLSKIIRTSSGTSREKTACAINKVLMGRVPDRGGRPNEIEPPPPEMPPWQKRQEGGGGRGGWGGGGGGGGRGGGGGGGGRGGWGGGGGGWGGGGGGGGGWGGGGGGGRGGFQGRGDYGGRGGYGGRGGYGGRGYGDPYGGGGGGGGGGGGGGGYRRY
T1 sequence (Q9BVC5 whole entry partner): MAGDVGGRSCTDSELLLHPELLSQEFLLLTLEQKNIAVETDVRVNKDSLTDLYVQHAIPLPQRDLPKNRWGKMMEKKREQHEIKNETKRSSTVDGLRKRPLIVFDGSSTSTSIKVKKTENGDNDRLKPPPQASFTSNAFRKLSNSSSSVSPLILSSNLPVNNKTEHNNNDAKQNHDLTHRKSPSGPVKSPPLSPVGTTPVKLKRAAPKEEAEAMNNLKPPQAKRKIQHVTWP
T1 sequence (Q9Y224 whole entry partner): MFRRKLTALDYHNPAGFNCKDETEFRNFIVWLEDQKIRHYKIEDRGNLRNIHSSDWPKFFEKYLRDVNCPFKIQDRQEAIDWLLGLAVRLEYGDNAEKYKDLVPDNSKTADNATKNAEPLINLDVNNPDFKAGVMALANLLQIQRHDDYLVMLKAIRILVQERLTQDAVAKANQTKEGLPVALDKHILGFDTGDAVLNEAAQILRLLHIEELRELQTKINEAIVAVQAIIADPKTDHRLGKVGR

B1: wild-type Archease: Homo sapiens Archease protein (SEQ ID NO: 28), recombinant, enhances RNA ligase activity of HSPC117 (protein, listed as Homo sapiens)
chain: MAQEEEDVRDYNLTEEQKAIKAKYPPVNRKYEYLDHTADVQLHAWGDTLEEAFEQCAMAMFGYMTDTGTVEPLQTVEVETQGDDLQSLLFHFLDEWLYKFSADEFFIPREVKVLSIDQRNFKLRSIGWGEEFSLSKHPQGTEVKAITYSAMQVYNEENPEVFVIIDI
In the case of B1, the entries for the “RNA ligase activity of affinity purified tRNA ligase complex upon addition of recombinant Archease” value in data set [1] and in data set [1] (listed as recombinant Archease) were “led to an increase in RNA ligase activity” and “boosts ligation activity to a great extent”, respectively. Besides, in data set [2], the “Stimulation of ligation of Xbp1 RNA minimal substrates by affinity purified human tRNA ligase complex” value is reported as “strongly stimulated ligation”.
